Tests used:
Type in all cases: biochemical
[1] = molecular target: T1, IGS5 polypeptide (His6-tagged IGS5 ectodomain) (Homo sapiens, UniProt Q495T6, V306M); experiment: Hydrolysis of vasoactive peptides and PACAP(1-27) by IGS5 polypeptide (HPLC); conditions: 100 μl assay volume; 100 ng IGS5 polypeptide; 0.5 μM substrate; 2 h, 37° C.
T1 construct: made in house; host or cells: Spodoptera frugiperda Sf9 (baculovirus IGBV73)
T1 sequence (Q495T6 with tags, fused parts or gaps V306M): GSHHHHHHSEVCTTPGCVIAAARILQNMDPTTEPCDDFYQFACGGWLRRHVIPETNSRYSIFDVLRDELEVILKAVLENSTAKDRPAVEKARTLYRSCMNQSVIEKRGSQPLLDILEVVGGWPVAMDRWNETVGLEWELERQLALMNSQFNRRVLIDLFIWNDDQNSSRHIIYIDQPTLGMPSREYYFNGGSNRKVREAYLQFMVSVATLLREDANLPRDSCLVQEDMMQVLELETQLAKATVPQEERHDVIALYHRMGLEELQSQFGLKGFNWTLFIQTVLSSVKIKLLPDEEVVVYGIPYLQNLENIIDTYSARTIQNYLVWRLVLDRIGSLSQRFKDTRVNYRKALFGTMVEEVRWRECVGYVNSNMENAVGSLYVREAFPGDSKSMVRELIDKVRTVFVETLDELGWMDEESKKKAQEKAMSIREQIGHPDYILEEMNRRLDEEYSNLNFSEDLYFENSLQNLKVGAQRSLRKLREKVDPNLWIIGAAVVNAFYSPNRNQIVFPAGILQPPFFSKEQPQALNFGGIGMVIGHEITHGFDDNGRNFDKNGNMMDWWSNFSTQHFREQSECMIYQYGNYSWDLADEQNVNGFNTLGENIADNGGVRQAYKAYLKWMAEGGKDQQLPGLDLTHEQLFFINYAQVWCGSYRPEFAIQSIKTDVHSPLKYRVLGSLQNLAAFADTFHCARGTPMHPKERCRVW
Protocol: The enzymatic activity of IGS5 polypeptides of the invention was tested with regard to the metabolism of biologically active peptides. In particular it was tested whether these IGS5 polypeptides may act on a variety of vasoactive peptides known in the state of the art e.g. such like atrial natriuretic peptide (ANP), bradykinin, big endothelin (Big ET-1), endothelin (ET-1), substance P and angiotensin-1. In the context of the present invention in particular it was tested whether the IGS5 ectodomain, which is a novel human metalloprotease, hydrolyzes said vasoactive peptides. For comparison the assay was also performed for a known member of the metalloprotease family which was described earlier as soluble secreted endopeptidase (SEP) by Ikeda, Emoto et al. (J. Biol. Chem., Vol. 274 (1999): pp. 32469-32477). Furthermore, it was tested whether the activity of IGS5 to convert a Big-ET-1 analogue (the so-called 17 aa Big-ET) may be inhibited by reference compounds that are used to determine the inhibition properties with regard to enzymes having ECE and/or NEP-characteristics. […] It was then checked whether the activity of IGS5 to convert PACAP(1-27) may be inhibited by a compound known to be a IGS5 inhibitor. The compound used to test the inhibition of IGS5-activity on PACAP(1-27) was the active metabolite of (3S,2′R)-3-{1-[2′-(ethoxycarbonyl)-4′-phenylbutyl]-cyclopentane-1-carbonylamino}-2,3,4,5-tetrahydro-2-oxo-1H-1-benzazepine-1-acetic acid (compound Ia-2 from WO 02/094176).
The enzymatic reaction was subsequently terminated by heating to 95° C. for 5 min. After centrifugation (Heraeus Biofuge B, 3 min) the supernatant was subjected to HPLC
In order to separate the remaining substrate from the cleavage products reversed phase HPLC technique was used with a CC 125/4 Nucleosil 300/5 C18 RP column and a CC 8/4 Nucleosil 100/5 C18 precolumn (commercially available from Macherey-Nagel, Duren, Germany). Thus, 60 μl of the reaction samples obtained in Example 7B were injected into the HPLC, and the column was eluted at a flow rate of 1 ml/min by applying the following gradient and solutions: […]
Peptides were detected by absorbance at 214 nm (UV spectroscopy) and/or by fluorescence with an excitation wavelength of 328 nm and an emission wavelength of 393 nm.
% Hydrolysis: For detection of substrate cleavage, the percentage of hydrolysis was calculated by directly comparing the substance peak areas in HPLC traces of the sample without addition of any IGS5 enzyme activity (blank) and of the samples with addition of IGS5 enzyme (sample). % hydrolysis was calculated on basis of the respective peak areas. % hydrolysis=100*(1−(Asample/Ablank))

ECE-1 = molecular target: T2, ECE-1 (Homo sapiens, UniProt P42892); experiment: PACAP(1-27) cleavage by recombinantly produced ECE-1; conditions: assay conditions as for IGS5
T2 sequence (P42892 1-770): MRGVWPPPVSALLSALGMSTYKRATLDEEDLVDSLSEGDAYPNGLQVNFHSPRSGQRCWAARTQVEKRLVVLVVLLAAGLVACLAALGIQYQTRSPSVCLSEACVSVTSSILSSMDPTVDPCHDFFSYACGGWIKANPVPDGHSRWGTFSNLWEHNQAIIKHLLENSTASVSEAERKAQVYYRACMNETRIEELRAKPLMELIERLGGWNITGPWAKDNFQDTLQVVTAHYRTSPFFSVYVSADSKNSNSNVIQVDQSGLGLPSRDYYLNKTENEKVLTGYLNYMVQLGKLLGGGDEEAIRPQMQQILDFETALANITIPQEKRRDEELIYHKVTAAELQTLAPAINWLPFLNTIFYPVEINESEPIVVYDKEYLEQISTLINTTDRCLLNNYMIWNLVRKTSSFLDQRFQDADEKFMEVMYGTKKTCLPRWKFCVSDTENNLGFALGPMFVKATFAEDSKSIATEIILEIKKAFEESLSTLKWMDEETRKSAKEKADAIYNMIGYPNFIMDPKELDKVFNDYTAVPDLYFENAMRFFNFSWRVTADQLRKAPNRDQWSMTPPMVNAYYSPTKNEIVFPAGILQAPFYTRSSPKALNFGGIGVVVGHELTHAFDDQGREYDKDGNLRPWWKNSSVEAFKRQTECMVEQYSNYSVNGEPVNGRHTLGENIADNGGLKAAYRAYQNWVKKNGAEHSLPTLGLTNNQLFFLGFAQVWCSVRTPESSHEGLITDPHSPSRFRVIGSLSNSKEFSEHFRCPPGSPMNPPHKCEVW
Protocol: (§1) A quantity of 80 μl of the assay buffer, 10 μl of enzyme working solution (5 μg/ml) and 10 μl of substrate stock solution (PACAP(1-27)) were mixed in an Eppendorf vial and incubated for 120 min. at 37° C. The enzymatic reaction was subsequently terminated by heating to 95° C. for 5 min. After centrifugation (Heraeus Biofuge B, 3 min) the supernatant was subjected to HPLC
(§2) In addition, it was also analysed whether PACAP(1-27) is cleaved by other recombinantly produced metalloproteases of the M13 family, such as NEP, ECE-1 and XCE/DINE. […] The data summarized herein indicate that PACAP(1-27) might be the physiologically relevant substrate of hSEP.

XCE/DINE = molecular target: T3, XCE/DINE (Homo sapiens, UniProt O95672); experiment: PACAP(1-27) cleavage by recombinantly produced XCE/DINE; conditions: assay conditions as for IGS5
T3 sequence (O95672 1-775): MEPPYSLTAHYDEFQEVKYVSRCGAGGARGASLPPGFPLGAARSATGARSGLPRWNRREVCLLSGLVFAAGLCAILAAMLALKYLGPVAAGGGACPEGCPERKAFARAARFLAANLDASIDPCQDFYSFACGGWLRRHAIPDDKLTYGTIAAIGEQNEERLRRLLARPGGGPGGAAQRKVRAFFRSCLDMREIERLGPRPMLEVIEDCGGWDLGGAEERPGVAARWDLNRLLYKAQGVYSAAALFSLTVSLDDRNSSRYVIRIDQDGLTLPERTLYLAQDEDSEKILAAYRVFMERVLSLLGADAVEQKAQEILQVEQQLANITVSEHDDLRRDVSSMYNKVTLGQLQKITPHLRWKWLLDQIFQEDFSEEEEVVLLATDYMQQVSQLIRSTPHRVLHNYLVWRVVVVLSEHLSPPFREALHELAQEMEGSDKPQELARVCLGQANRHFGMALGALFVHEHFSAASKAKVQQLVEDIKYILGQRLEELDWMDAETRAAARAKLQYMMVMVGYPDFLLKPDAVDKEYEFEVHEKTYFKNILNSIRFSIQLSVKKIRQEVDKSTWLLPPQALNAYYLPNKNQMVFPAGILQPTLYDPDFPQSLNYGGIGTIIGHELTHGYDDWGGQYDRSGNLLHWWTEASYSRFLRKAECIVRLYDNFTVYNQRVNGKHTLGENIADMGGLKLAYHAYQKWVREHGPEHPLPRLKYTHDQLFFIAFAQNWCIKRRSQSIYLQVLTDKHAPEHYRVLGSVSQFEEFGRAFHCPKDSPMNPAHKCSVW
Protocol: as §1, §2

NEP = NEP (Homo sapiens, UniProt P08473); experiment: PACAP(1-27) cleavage by recombinantly produced NEP; conditions: assay conditions as for IGS5
Protocol: as §1, §2

Sequence of NEP (P08473 whole entry): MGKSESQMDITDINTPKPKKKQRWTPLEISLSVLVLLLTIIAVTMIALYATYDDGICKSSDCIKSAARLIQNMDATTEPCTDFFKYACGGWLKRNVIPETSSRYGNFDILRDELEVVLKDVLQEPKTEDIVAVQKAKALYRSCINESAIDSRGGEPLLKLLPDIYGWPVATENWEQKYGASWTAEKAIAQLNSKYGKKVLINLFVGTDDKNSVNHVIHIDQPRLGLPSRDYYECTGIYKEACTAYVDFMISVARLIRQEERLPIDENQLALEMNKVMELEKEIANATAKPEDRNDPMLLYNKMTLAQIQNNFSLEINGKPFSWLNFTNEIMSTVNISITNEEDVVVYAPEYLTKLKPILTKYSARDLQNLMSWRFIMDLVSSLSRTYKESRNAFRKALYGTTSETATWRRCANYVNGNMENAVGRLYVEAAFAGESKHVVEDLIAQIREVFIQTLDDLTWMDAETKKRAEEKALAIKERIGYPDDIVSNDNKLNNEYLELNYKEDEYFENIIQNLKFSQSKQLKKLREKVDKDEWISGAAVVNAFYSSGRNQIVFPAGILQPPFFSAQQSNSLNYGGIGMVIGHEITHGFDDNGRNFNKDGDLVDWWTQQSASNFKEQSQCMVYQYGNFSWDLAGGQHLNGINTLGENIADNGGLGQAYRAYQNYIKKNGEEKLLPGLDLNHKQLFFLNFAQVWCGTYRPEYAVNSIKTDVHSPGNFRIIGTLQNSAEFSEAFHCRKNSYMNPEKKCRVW

His-Ser-Asp-Gly-Ile-Phe-Thr-Asp-Ser-Tyr-Ser-Arg-Tyr-Arg-Lys-Gln-Met-Ala-Val-Lys-Lys-Tyr-Leu-Ala-Ala-Val-Leu [PACAP (1-27)]
% Hydrolysis by IGS5 Polypeptide [1]: 69% | Cleavage of PACAP(1-27) by ECE-1 (ECE-1): None of the aforementioned enzymes was able to cleave | Cleavage of PACAP(1-27) by XCE/DINE (XCE/DINE): None of the aforementioned enzymes was able to cleave | Cleavage of PACAP(1-27) by NEP (NEP): None of the aforementioned enzymes was able to cleave

Reference: US8012471B2, “Screening and treatment methods using IGS5 enzymes of the metalloprotease family” (Abbott Healthcare Products B.V., priority 1999, dated 2011)
